Target: actin

Protein	DNA-hydrolytic activity in plasmid nicking assay (supercoiled pBR322, agarose gel)
human DNase I (protein) LKIAAFNIQTFGETKMSNATLVSYIVQILSRYDIALVQEVRDSHLTAVGKLLDNLNQDAPDTYHYVVSEPLGRNSYKERYLFVYRPDQVSAVDSYYYDDGCEPCGNDTFNREPAIVRFFSRFTEVREFAIVPLHAAPGDAVAEIDALYDVYLDVQEKWGLEDVMLMGDFNAGCSYVRPSQWSSIRLWTSPTFQWLIPDSADTTATPTHCAYDRIVVAGMLLRGAVVPDSALPFNFQAAYGLSDQLAQAISDHYPVEVMLK	the DNA-hydrolytic activity of human DNase I was inhibited by added actin in a concentration-dependent manner
human LS-DNase (protein) MRICSFNVRSFGESKQEDKNAMDVIVKVIKRCDIILVMEIKDSNNRICPILMEKLNRNSRRGITYNYVISSRLGRNTYKEQYAFLYKEKLVSVKRSYHYHDYQDGDADVFSREPFVVWFQSPHTAVKDFVIIPLHTTPETSVKEIDELVEVYTDVKHRWKAENFIFMGDFNAGCSYVPKKAWKNIRLRTDPRFVWLIGDQEDTTVKKSTNCAYDRIVLRGQEIVSSVVPKSNSVFDFQKAYKLTEEEALDVSDHFPVEFKLQSSRAFTNSKKSVTLRKKTKSKRS	the DNA-hydrolytic activity of LS-DNase was not inhibited by concentrations of actin that fully inhibited human DNase I

Reference: US20050053994
